# In the supplement of paper PMC12042874:
# ± gives the uncertainty stated by the source.
# Test: amyloid nucleation score (Sup35N fusion, yeast selection) (log enrichment); library NNK1; higher = more nucleation; inactive = no reads after selection
# Summary of the method: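 The nucleation score, computed with DiMSum, is the log enrichment of output over input reads, centred on the mode score of non-aggregating sequences. Sequences with under 100 input reads were dropped. Reads were generated by Illumina sequencing of plasmid inserts from psi-negative yeast with Sup35N fused to peptides of 20 random codons, induced with 100 μM copper sulfate for 24 hours and grown 7 days at 30°C on medium lacking adenine and uracil.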
row,Substance,amyloid nucleation score
1,LTNRSLIVRDWCTSTYPNPS,0.08 ± 0.53
2,CSCYRFLGDSKWIRHHINRT,-0.679 ± 0.85
3,NVTIVGS,1.02 ± 0.46
4,LKFNAP,-0.14 ± 1.4
5,NVYWNRWAMTFWLSGDEMWF,1.27 ± 0.42
6,SFWYYGDEKNVTVNLGFNES,-0.233 ± 0.79
7,SNLLTRSPLMLSSIIMVMNC,-0.133 ± 0.75
8,TYKFGYVHVDTFMTVLMHTL,-0.169 ± 0.31
9,TGDRCWLFEGYAFKEHCFAD,2.54 ± 0.13
10,NFYSGICMICLGT,7.307 ± 0.065
11,SVIRDWLSGACSGTTEGRRT,-0.295 ± 0.43
12,LGDTVCVRYCR,0.223 ± 0.37
13,FSSRWSI,-0.138 ± 0.6
14,VTFHLEARLAGLDLMGYSTS,0.835 ± 0.53
15,RKFRNKAIISIIDVYRPAAI,1.01 ± 0.62
16,VCRLGSNPVQWVGPGSSVFC,1.23 ± 0.71
17,TSNYAGAISFANSNILLFFV,3.64 ± 0.14
18,KMKSEDT,1.07 ± 0.25
19,YNVCGELQDNIRCYISLTVL,inactive
20,MFYKSRLYNRYRYRHRCYNT,-0.072 ± 0.27
21,ISMGWWIDYGPY,-0.724 ± 0.81
22,NGCTIVGVTKGSLNH,1.04 ± 0.24
23,APSLVVRPSFGGLRTRVVYP,0.44 ± 0.58
24,TWAVSNLSRV,-1.61 ± 0.59
25,RINSGHIK,0.247 ± 0.33

row,Substance,amyloid nucleation score
1,FSVRGYSNLSAEDFINLKVP,-0.522 ± 1.4
2,GKFLRGGHLVFRWATLYLSV,-0.604 ± 0.97
3,HTNVWGGAHYTSIKAN,0.581 ± 0.31
4,PQLRLLPGVLGNPGNGHSRI,4.59 ± 0.098
5,ELKPKAFVVLSDHRHGYKRQ,-0.076 ± 0.97
6,FQHTLGRKA,0.438 ± 0.68
7,VLKRLRTYVYSIFW,0.543 ± 0.33
8,RFHWACKVYLSNYMV,0.69 ± 0.25
9,WRNYYHWVTFRSDRLDRWFG,1.85 ± 0.12
10,RDTHRDNRNLPSHLSSVYRK,-1.35 ± 2.4
11,LYSFNGN,inactive
12,GLTRFGGPSTMIFMDL,-0.201 ± 0.8
13,QYFSWGRVATCSACG,0.309 ± 0.62
14,VKVCHSPKTSYDTVISRGNL,0.459 ± 0.44
15,NRYGWHSPDVPLAHIS,-0.029 ± 0.87
16,LHMLKMICKVVNRVSYS,-0.098 ± 0.23
17,FTGDVPEDTLRLSSFENMRR,0.384 ± 0.53
18,LTAIFSRIFNI,-0.997 ± 1.4
19,GVCRDAVGGVTYDK,-0.363 ± 1.5
20,MVTTPFALTGFRDVMWCRAR,3.09 ± 0.092
21,GILVCLNYLGLFVVYHGFVW,1.33 ± 0.56
22,ACEKLQVNW,0.329 ± 0.35
23,VLLFVVLHLNLSVHILQNFQ,-0.396 ± 0.54
24,NSTSCCVMGVSVRFMSFF,7.498 ± 0.069
25,LLRWLFCFEWHDSNMSTNII,-1.76 ± 2.4

row,Substance,amyloid nucleation score
1,LYYRKLVCWESGMA,0.318 ± 0.66
2,VAFYGFITKINLEIY,0.578 ± 0.4
3,FGYVDPRQCDISEHLPLSTV,-0.345 ± 0.61
4,TAWSSHPEV,-1.16 ± 2.4
5,WHPAKMILEYAEVRSNL,-0.032 ± 0.39
6,DTGGLYLERARQFKASMFLR,0.229 ± 0.42
7,YVYGYLNHRTSSGRMFFLFY,0.077 ± 0.38
8,EKRRNNTSNRSWSGSYFLDT,0.111 ± 0.28
9,YWCLRSLMV,inactive
10,FAYGI,-0.633 ± 0.62
11,GMAVFV,0.18 ± 1.1
12,TVVHINHHFRGTFISMAKSR,-1.58 ± 2.1
13,SNSRFMLHGWAGIWFIWSWG,0.124 ± 0.5
14,GNLFITACFHAFVIWFHNGN,inactive
15,TTGSLVCKAAPIWFVPTPAF,-1.09 ± 0.84
16,FRIVGSRMFVLLLCYVSSGR,0.241 ± 0.27
17,YDQNWMRTIDRVNH,-0.292 ± 0.5
18,YNAASKGEINPNAGNVILFV,3.13 ± 0.1
19,QKYPSWINFPYF,-0.935 ± 0.97
20,ESRCRTLKIVLCCGFLSDWP,inactive
21,CTPFMRTSLSFICSDSSVML,0.771 ± 0.82
22,GRSTNSSDISNHMRNS,0.961 ± 0.31
23,KSRRSCQQLIIVKHVVHARR,4.08 ± 0.061
24,AFRCCMFAFVFCSSGDSRAE,7.392 ± 0.056
25,HDSSF,-0.038 ± 0.56

row,Substance,amyloid nucleation score
1,YRWLLNRKTSSMSVFCNSLF,inactive
2,IFSGECHVYVGSRQGWALVI,-0.22 ± 0.98
3,EHSFRNRCEAANWLVWLRVI,-0.061 ± 0.51
4,TGLSSYM,-0.701 ± 0.97
5,VMGFHT,-0.402 ± 1.9
6,FSFRRFCLCMLREGHTRQLG,-0.957 ± 2.4
7,LEAMPMCGEELRSLYTMVNV,0.552 ± 0.42
8,KNPLVIKKRF,0.204 ± 0.59
9,RILKMYTYVLTMADHVLNKS,0.21 ± 0.2
10,FVKFVTSEAFDHVLRTNWN,inactive
11,CSLSETFPKVYFMWTQRSYV,-1.36 ± 2.4
12,FWSWSV,-0.222 ± 0.42
13,WRSSWWWRCCYYSSSSMSRW,1.12 ± 0.6
14,GKCVTWQASCLQCSKSNWYQ,0.995 ± 0.81
15,RFKCDVTTVDW,0.108 ± 0.24
16,DLSFLRNCSLYSLLGVIG,inactive
17,EKSCATRLA,0.374 ± 0.29
18,SDGMFSYNVRFAQRSWMYRT,-0.14 ± 0.55
19,WRRRDRVLQCWL,inactive
20,RITAVRGVCLFSADSV,-0.175 ± 0.26
21,FIIWHELWKVMWSSTALSLD,0.769 ± 0.69
22,LTNIYLVRMT,5.26 ± 0.071
23,IISRLCLQLPATRT,1.21 ± 0.67
24,PSWSPKAIKFQHVLYFVKFL,0.236 ± 0.59
25,KYSLNM,-0.872 ± 1.4

row,Substance,amyloid nucleation score
1,GNVAWYTSIGCGGMILWADF,-0.124 ± 0.76
2,LSHWHGCCKSHRYIQF,0.244 ± 0.3
3,VASGSCFFRDPKIVIMSFLW,3.34 ± 0.088
4,DNNLGLSWLSILAGFGH,-1.23 ± 0.91
5,GRAYGSVCILRLGC,0.835 ± 0.63
6,CCQRYCCTSGLANNWNRVYH,0.812 ± 0.75
7,EFGRDNHVLVLWMGRAPSDM,-0.436 ± 0.55
8,FLGTI,-1.08 ± 2.7
9,IQRKSITTWSPH,3.43 ± 0.2
10,IWGNVSLIRGFCPVKLWSQR,-0.082 ± 0.46
11,RTVQSGHSSARCKIIGPYHD,-0.077 ± 1.7
12,IFSENRDVGNVFSVGQIVIF,3.72 ± 0.079
13,IYNLDWSF,-0.99 ± 1.3
14,ELVSS,-0.455 ± 0.26
15,IWRLWWAKGPGSRLLRCRLY,-0.167 ± 0.42
16,VLFLTGFGNHSFRTDQMATG,0.287 ± 0.64
17,AVSMWLPNDLAMIRSYIGYY,-0.475 ± 0.52
18,DRWLSM,-0.025 ± 0.51
19,SNRCSPDMESDVHSVKELYR,0.762 ± 0.41
20,LKSSSCHQTSISHRALFCNL,-0.373 ± 1.2
21,MDTSL,-0.235 ± 0.82
22,NNKQYLI,1.59 ± 0.38
23,LNRVLMTIWCTPMSICTYDC,3.89 ± 0.12
24,YINVLVKAHGMMVPRRLKWV,0.086 ± 0.32
25,EWACFRGAYPAYSDLFR,-0.327 ± 0.67

row,Substance,amyloid nucleation score
1,YEMSY,-1.38 ± 2.4
2,FSNLKISWECNRCGSYYDCE,-0.122 ± 1.4
3,YGRVTDYCKCCVILRLSYWV,-0.993 ± 0.77
4,SLNSTFFCIEISVDDIEVLQ,-0.609 ± 0.52
5,LVELLVWMAGWRCGDFLACR,0.867 ± 0.58
6,QSVWEYNGTFSLRYRDMTGY,0.477 ± 0.65
7,VNMSVIWGRVFASEKVYRAK,0.871 ± 0.56
8,VAVTITYAICDTLILFIEGG,4.08 ± 0.1
9,PVVCYTVAFVTGSTDVV,-0.139 ± 1.3
10,RISLRYGQRC,0.356 ± 0.28
11,SSYDWCWSHVCFK,0.8 ± 0.38
12,NCNKSFNLLECGSFGTVGPM,-0.324 ± 0.6
13,YSSWVKLASLVDRDVPQYDW,inactive
14,MDFDRCYSFRGMR,-0.13 ± 0.47
15,LVHTDTNLVF,inactive
16,MPDYVSFTSRMPLRLKLLLS,inactive
17,HVLLYCANFVIYTDVA,2.45 ± 0.26
18,NLHNRTCWCMYLFDTSWS,0 ± 0.29
19,SAPFMNGLCTLSRVREISAH,0.222 ± 0.59
20,KLIRYYRFACVMSFRVFYSF,inactive
21,RNTVGYVSNTGVLYILTS,6.24 ± 0.067
22,NPAGF,0.558 ± 1.1
23,SPFSGVL,0.589 ± 0.25
24,RCMGGGFRRRVNMYETPGIR,-0.387 ± 0.79
25,GLTPMRHN,-1.01 ± 1.1

row,Substance,amyloid nucleation score
1,FLMFQGSYIYRNTGFYSSSD,-0.176 ± 0.95
2,FSCGCIRYFSG,-0.115 ± 0.91
3,FNFMFAKDGGSDTFLRFDRV,4.83 ± 0.11
4,RIMYSRLDYWLAYPVISERG,-0.057 ± 1.4
5,FYGEGNFRGKTYVFTVPVVK,-1.21 ± 2.4
6,ADPLMI,-0.163 ± 0.28
7,SGGDFQCTRHMSVDLGLPVS,0.428 ± 0.64
8,YSIDTGS,inactive
9,YRKFHPGKRL,0.193 ± 0.58
10,GVMYLKRKLRCYMGINYVFH,0.074 ± 0.31
11,WKCWGLCHLQR,-1 ± 0.93
12,DLLFAIMMS,-0.631 ± 1.2
13,VMYEVVHVNDDRCEAWLLSR,-0.018 ± 1.5
14,ALTIDRCRAESYLRRLTFLL,-0.653 ± 0.4
15,SDERKGPGYPSMITSWQGGS,-1.31 ± 2.4
16,QIQIT,0.152 ± 1
17,TYSLYMCADKFRNTLVNKAV,inactive
18,GKMMVFRVFFRFVPSESWVI,-0.638 ± 0.52
19,HFLVKCLLLLSVSSKLCVSR,0.564 ± 0.33
20,FRTHVGSDCGL,-0.026 ± 1
21,CCGMSGLSIGDGKNFMSGWV,1.82 ± 0.45
22,LTMGRKMVPYHLVSAMMGTV,-0.114 ± 0.57
23,NLLLYVYKKLCFGFVKECII,-0.953 ± 0.57
24,ILRQIDIDATYVIFLEMSRL,5.854 ± 0.047
